Consider 9 molecules from paper PMC5095173, “Disulfide-activated protein kinase G Iα regulates cardiac diastolic relaxation and fine-tunes the Frank–Starling response” (Nature Communications, 2016).

The subject of test [1] is PKGIα (analogue-sensitive M438G), disulfide-activated. As to the kind of experiment: Chemical genetic phosphoproteomic screen, disulfide-activated PKGIα M438G versus unactivated control. Format: biochemical, human PKGIα; substrates in rat heart homogenate. The following applies: control = PKGIα C42S/M438G. The gist of the method:
(§1)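 Substrates in rat left-ventricle homogenate (20 mg ml) are labelled by engineered Met438Gly PKGIα given a bulky N6-alkylated ATPγS analogue, either as disulfide-activated M438G (oxidized, DTT-free) or as cGMP-activated C42S/M438G. Covalent capture and LC–MS/MS identify sites relative to unactivated kinase.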

Test [2] relates to PKGIα (analogue-sensitive C42S/M438G), cGMP-activated. Nature of the test: Chemical genetic phosphoproteomic screen, cGMP-activated PKGIα C42S/M438G versus unactivated control. Format: biochemical, human PKGIα; substrates in rat heart homogenate. The following applies: control = PKGIα C42S/M438G. The gist of the method:
as §1

B1: Hspb6 pS16 (protein, UniProt P97541 1-162, looked up)
Heat shock protein beta-6: MEIRVPVQPSWLRRASAPLPGFSTPGRLFDQRFGEGLLEAELASLCPAAIAPYYLRAPSVALPTAQVPTDPGYFSVLLDVKHFSPEEISVKVVGDHVEVHARHEERPDEHGFIAREFHRRYRLPPGVDPAAVTSALSPEGVLSIQATPASAQASLPSPPAAK
modifications: phosphorylated at S16
Consider B1, for which the “log2 fold change Disulfide vs Control” value in test [1] came to 1.245. Also, the “log2 fold change cGMP vs Control” value in test [2] is 2.607.

B2: Fhl2 pS255 (protein, UniProt O70433 1-279, looked up)
Four and a half LIM domains …: MTERFDCHHCNESLYGKKYILKEENPHCVACFEELYANTCEECGTPIGCDCKDLSYKDRHWHEGCFHCSRCGSSLVDKPFAAKEEQLLCTDCYSNEYSSKCQECKKTIMPGTRKMEYKGSSWHETCFTCQRCQQPIGTKSFIPKENQNFCVPCYEKQYALQCVQCKKPITTGGVTYREQPWHKECFVCTACKKQLSGQRFTARDEFPYCLTCFCDLYAKKCAGCTNPISGLGGTKYISFEERQWHNDCFNCKKCSLSLVGRGFLTERDDILCPDCGKDI
modifications: phosphorylated S255
For the molecule B2, the “log2 fold change Disulfide vs Control” value in test [1] is given as 1.662. In test [2], the “log2 fold change cGMP vs Control” value was found to be 3.732.

B3: Gpsm1 pS567 (protein, UniProt Q9R080 1-673, looked up)
G-protein-signaling modulator …: MASPAPPAAEELPGPAARRLYSRMEASCLELALEGERLCKAGDFKAGVAFFEAAVQVGTEDLKTLSAIYSQLGNAYFYLKEYARALQFHKHDLLLARTIGDRMGEAKASGNLGNTLKVLGRFDEAIVCCQRHLDIAQEQGDKVGEARALYNIGNVYHAKGKQLSWNAAQDPGHLPPDVRETLHRASEFYERNLSLVKELGDRAAQGRAYGNLGNTHYLLGNFTEATTFHKERLAIAKEFGDKAAERRAYSNLGNAHIFLGRFDVAAEHYKKTLQLSRQIRDQAVEAQACYSLGNTYTLLQDYERAAEYHLRHLVIAQELADRVGEGRACWSLGNAYVSMGSPAQALTFAKKHLQISQEIGDRNGELTARMNIAHLQLALGRLTSPAAAEKPDLAGYEAQGARPKRTQRLSAETWDLLRLPLDREQNGETHHTGDWRGPSRDSLPLPMRSRKYQEGPDAIERRPREGSHSPLDSADVRVQVPRTGIPRAPSSDEECFFDLLSKFQSSRMDDQRCPLEEGQAGAAEATAAPTLEERAAQPSVTASPQTEEFFDLIASSQSRRLDDQRASVGSLPGLRITLNNVGHLRGDGDPQEPGDEFFNMLIKYQSSRIDDQRCPPPDVLPRGPTMPDEDFFSLIQRVQAKRMDEQRVDLAGSPDQEASGLPDPRQQCPPGAS
modifications: phosphorylated at S567
Turning to B3, the “log2 fold change Disulfide vs Control” value in test [1] was 1.042. The “log2 fold change cGMP vs Control” value in test [2] was determined as 2.926.

B4: Rrad pS25 (protein, UniProt P55043 1-306, looked up)
GTP-binding protein RAD: MTLNGGSGAGGSRSAGRERDRRRGSTPWGPAPPLHRRSMPVDERDLQAALTPGSLAATAAGTRTQGQRLDWPEGSSDSLSSGDSGSEDGVYKVHAAGAPGVGKSALARIFGGVEDGPEAEAAGHTYDRSITVDGEEASLMVYDIWEQDGGCWLPGHCMAMGDAYVIVYSITDKGSFEKASELRVQLRARRQTDVPIILVGNKSDLVRSREVSVDEGRACAEVFDCKFIETSAALHHNVQALFEGVVRQIRLRRDSKEDNARRQAGTRRRESLGKKAKLFLGRIVARNSRKMAFLAKSKSCHDLSVL
modifications: phosphorylated at S25
As for B4, the “log2 fold change Disulfide vs Control” value in test [1] is given as -0.2493. Further, the “log2 fold change cGMP vs Control” value in test [2] is on record as -0.2363.

B5: Jph2 pS240 (protein, UniProt Q2PS20 1-692, looked up)
Junctophilin-2: MSGGRFDFDDGGAYCGGWEGGKAHGHGLCTGPKGQGEYSGSWNFGFEVAGVYTWPSGNTFEGYWSQGKRHGLGIETKGRWLYKGEWTHGFKGRYGIRQSTNSGAKYEGTWNNGLQDGYGTETYADGGTYQGQFTNGMRHGYGVRQSVPYGMAVVVRSPLRTSLSSLRSEHSNGTVAPDSPAADGPTLPLPPVPRGGFALSLLATAEAARPPGLFTRGALLGRLRRSESRTSLGSQRSRLSFLKSELSSGASDAASTGSLAEGAEGPDDAAAPFDADIDATTTETYMGEWKNDKRSGFGVSERSSGLRYEGEWLDNLRHGYGRTTLPDGHREEGKYRHNVLVKGTKRRVLPLKSNKVRQKVEHGVEGAQRAAAIARQKAEIAASRTSHAKAKAEAAEQAALAANQESNIARTLAKELAPDFYQPGPEYQKRRLLQEILENSESLLEPRERGPGTGLPERPRESPQLHERETPQPEGGPPSPAGTPPQPKRPRPGSSKDGLLSPGAWNGEPGGEGSRPATPSDGAGRRSPARPASEHMAIEALQPPPAPSREPEVALYRGYHSYAVRTGPPEPPPLEDEPEPEPEVPRSDSEPPSPVSATVQEEESPAPRSRVPAKPATLEPKPIVPKAEPKAKARKTEARGLSKAGAKKKGRKEVAQEAEAEVEVEEVPNTVLICMVILLNIGLAILFVHLLT
modifications: phosphorylated at S240
For B5, the “log2 fold change Disulfide vs Control” value in test [1] stood at 0.2694. Moreover, the “log2 fold change cGMP vs Control” value in test [2] came to 0.1615.

B6: Hmga1 pS36 (protein, UniProt P17095 2-107, looked up)
High mobility group protein …: SESGSKSSQPLASKQEKDGTEKRGRGRPRKQPPVSPGTALVGSQKEPSEVPTPKRPRGRPKGSKNKGAAKTRKVTTAPGRKPRGRPKKLEKEEEEGISQESSEEEQ
modifications: phosphorylated S36
In the case of B6, the “log2 fold change Disulfide vs Control” value in test [1] came to 1.6764. Besides, the “log2 fold change cGMP vs Control” value in test [2] turned out to be 4.39.

B7: Hspb1 pS9 (protein, UniProt P14602 1-209, looked up)
Heat shock protein beta-1: MTERRVPFSLLRSPSWEPFRDWYPAHSRLFDQAFGVPRLPDEWSQWFSAAGWPGYVRPLPAATAEGPAAVTLAAPAFSRALNRQLSSGVSEIRQTADRWRVSLDVNHFAPEELTVKTKEGVVEITGKHEERQDEHGYISRCFTRKYTLPPGVDPTLVSSSLSPEGTLTVEAPLPKAVTQSAEITIPVTFEARAQIGGPEAGKSEQSGAK
modifications: phosphorylated S9
In the case of B7, the “log2 fold change Disulfide vs Control” value in test [1] is given as -0.3759. The “log2 fold change cGMP vs Control” value in test [2] stood at 1.482.

B8: Eml1 pS108 (protein, UniProt Q4V8C3 1-814, looked up)
Echinoderm …: MEDGFSSYSSLYDTSSLLQFCNDDSASAASSMEISDRIASLEQRVQMQEDDIQLLKSALADVVRRLNITEEQQAVLNRKGPTKARPLGQTLPLRTTVNNGTVLPKKPSASLPSPSGSRKEMVVPVTKSINRTSSSERVSPGGRRESSGDSKGSRNRTGSTSSSSSGKKNSESKPKEPTFSPEEGYVKMFLRGRPVTMYMPKDQVDSYSLEAKAELPTKRLKLEWVYGYRGRDCRNNLYLLPTGETVYFIASVVVLYNVEEQLQRHYAGHNDDVKCLAVHPDRITIATGQVAGTSKDGKQLPPHVRIWDSVTLNTLHVIGIGFFDRAVTCIAFSKSNGGSHLCAVDDSNDHVLSVWDWQREERLADVKCSNEAVFAADFHPTDTNIIVTCGKSHLYFWTLEGNSLNKKQGLFEKQEKPKFVLCVTFSENGDTITGDSSGNILVWGKGTNRISYAVQGAHEGGIFALCMLRDGTLVSGGGKDRRLISWNGNYQKLHKAEIPEQFGPIRTVAEGKGNVILIGTTRNFVLQGTLTGDFTPITQGHTDELWGLAIHASKPQFLTCGHDKHATLWDAVGHRPVWDKIIEDPAQSSGFHPSGSVVAVGTLTGRWFVFDTETKDLVTVHTDGNEQLSVMRYSPDGNFLAIGSHDNCIYIYGVSDNGRKYTRVGKCSGHSSFITHLDWSVNSQFLVSNSGDYEILYWVPSACKQVVSVETTRDIEWATYTCTLGFHVFGVWPEGSDGTDINAVCRAHEKKLLSTGDDFGKVHLFSYPCSQFRAPSHIYSGHSSHVTNVDFLCEDSHLISTGGKDTSIMQWRVI
modifications: phosphorylated at S108
B8: the “log2 fold change Disulfide vs Control” value in test [1] stood at 1.496. Also, in test [2], the “log2 fold change cGMP vs Control” value was 3.948.

B9: Lrpprc pS656 (protein, UniProt Q5SGE0 78-1392, looked up)
Leucine-rich PPR …: SGSQFDWALMRLDNSVRRTGRITKGLLQKVFESTCRSGSPGSNQALLLLRSCGSLLPELSLAERTEFAHKIWDKLQQLGTVYDVSHYNALLKVYLQNEYRFSPTDFLAKMEGANIQPNRVTYQRLIAAYCSVGDIEGASKILGFMKTRDLPITEAVFSALVTGHARAGDMESAENILTVMKQAGIEPGPDTYLALLNAHAEKGDIDHVKQILEKVEKSDHYFMDRDFLQIIVSFSKAGYPQYVSEILEKITYERRSIPDAMNLILLLVTEKLEDTAFQVLLALPLARDETSSSFGSFFLRHCVTMDTPAEKLIDYCKRLRDAKVHSSSLQFTLHCALQANKTALAKAVMEALRDEGFPIRTHYFWPLLVGHQKTKNVQGIIDILKIMKEMGVDPDQETYINYVFPCFGSVQSARAALQENKCLPKSTTFAQAEVRNEAINGNLQNILSFLESNALPFSFNSLRGSLILGFRRSMNIDLWSKITELLYKDDRYCQKPPGPTEAVGYFLYNLIDSMSDSEVQAKEERLRQYFHQLREMNVKVSENIYKGICNLLDNYHVPELIKDVKVLVDREKIDSRKTSQFTSSDLESTLEKLKAEGHPVGDPLKQLILLLCSEENMQKALEVKAKYESDMVIGGYAALINLCCRHDNAEDALNLKQEFDRLDPSAVLDTAKYVALVKVLGKHGRVQDAINILKEMKEKDVVIKDAAVLSFFHILNGAALRGEIETVKQLHEAIVTLGLAKPSSNISFPLVTVHLEKDDLPAALEASIACHEKYKVLPRIHDVLCKLIEKGETDLIQKAMDFVSQEQGEMSMLYDLFFAFLQTGNYKEAKKIIETPGIRARPTRLQWFCDRCIANNQVETLEKLVELTEKLFECDRDQMYYNLLKLYKISGDWQRADAVWNKMQEENLIPRERTLRLLAGILKTSNQEVPFDVPELWFGDDRSSLSSSSPSAGDTVTEKMLLSDCRLKKSKDAYNIFLKAEKQDVVFSSEAYSTLVGLLLSKDDFTRAMHVKDFAETHIKGFTLNGAASSLLIIAQVRRDYLKVALETLKAALDLEQVPSELAVTRLIQALALQGDVKSIETIQKMVKGLDAIELSRMVFINNIALAQMKNNEIDAAIENIEHMLASENQTVEHQYFGLSYLFRKVIEEQMEPALEKLSIMSERLANQFALYKPVTDLFLQLVDSGKVDEARALLERCGAIAEQTSILSVFCLRTSQKPKKAPVLKTLLELIPELRENDRVYSCSMKSYVADKDVASAKALYEHLTAKNMKLDDLFLKRYASLLKDVGEPVPFTEPPESFGFYIKQLKEARENPS
modifications: phosphorylated at S656
On to B9, for which, in test [1], the “log2 fold change Disulfide vs Control” value is 0.7702. In addition, the “log2 fold change cGMP vs Control” value in test [2] was found to be 4.57.
